Assay results taken from article PMC12490080, “Natural variation in Arabidopsis thaliana highlights a key role of glyoxalase I;2 in detoxifying glucose-derived reactive carbonyl species” (BMC Plant Biology, 2025).

Experiments:
purified protein [1] = substrate: O=CC=O; experiment: purified protein; type: biochemical, Arabidopsis thaliana; conditions: true substrate is the hemithioacetal of GO and GSH (preformed 30 min; HTA concentration calculated with Kdiss 3.0 mM), 1.7 mM GSH, 0.5 mM Mn2+, 100 mM MOPS pH 7.0, 25 °C
purified protein [2] = substrate: CC(=O)C=O; experiment: purified protein; type: biochemical, Arabidopsis thaliana; conditions: true substrate is the hemithioacetal of MGO and GSH (preformed 30 min; HTA concentration calculated with Kdiss 3.0 mM), 1.7 mM GSH, 0.5 mM Ni2+, 100 mM MOPS pH 7.0, 25 °C

B1: GLXI;2 (Col-0 GLXI;2) (Arabidopsis thaliana) (protein)
chain: MAEASDLLEWPKKDNRRFLHVVYRVGDLDRTIEFYTEVFGMKLLRKRDIPEEKYSNAFLGFGPETSNFVVELTYNYGVSSYDIGTGFGHFAISTQDVSKLVENVRAKGGNVTREPGPVKGGGSVIAFVKDPDGYTFELIQRGPTPEPFCQVMLRVGDLDRAIKFYEKALGMRLLRKIERPEYKYTIGMMGYAEEYESIVLELTYNYDVTEYTKGNAYAQIAIGTDDVYKSGEVIKIVNQELGGKITREAGPLPGLGTKIVSFLDPDGWKTVLVDNKDFLKELE
notes: monomer; two domains, active site 2 (His89, Glu137, Gln150, Glu201)
- Km (purified protein [1]): 411 ± 18 µM
- kcat (purified protein [1]): 2.8 ± 0.3 s⁻¹
- kcat/Km (purified protein [1]): 6800 ± 600 M⁻¹ s⁻¹
- Km (purified protein [2]): 297 ± 14 µM
- kcat (purified protein [2]): 7.5 ± 0.9 s⁻¹
- kcat/Km (purified protein [2]): 25300 ± 1700 M⁻¹ s⁻¹

B2: GLXI;2 (Col-0 GLXI;2) (Arabidopsis thaliana; F278I) (protein)
chain: MAEASDLLEWPKKDNRRFLHVVYRVGDLDRTIEFYTEVFGMKLLRKRDIPEEKYSNAFLGFGPETSNFVVELTYNYGVSSYDIGTGFGHFAISTQDVSKLVENVRAKGGNVTREPGPVKGGGSVIAFVKDPDGYTFELIQRGPTPEPFCQVMLRVGDLDRAIKFYEKALGMRLLRKIERPEYKYTIGMMGYAEEYESIVLELTYNYDVTEYTKGNAYAQIAIGTDDVYKSGEVIKIVNQELGGKITREAGPLPGLGTKIVSFLDPDGWKTVLVDNKDILKELE
notes: as for B1
- Km (purified protein [1]): 403 ± 12 µM
- kcat (purified protein [1]): 2.5 ± 0.4 s⁻¹
- kcat/Km (purified protein [1]): 6200 ± 300 M⁻¹ s⁻¹
- Km (purified protein [2]): 311 ± 18 µM
- kcat (purified protein [2]): 8.4 ± 1.2 s⁻¹
- kcat/Km (purified protein [2]): 27000 ± 2400 M⁻¹ s⁻¹

B3: GLXI;2 (Col-0 GLXI;2) (Arabidopsis thaliana; F278I/K229N) (protein)
chain: MAEASDLLEWPKKDNRRFLHVVYRVGDLDRTIEFYTEVFGMKLLRKRDIPEEKYSNAFLGFGPETSNFVVELTYNYGVSSYDIGTGFGHFAISTQDVSKLVENVRAKGGNVTREPGPVKGGGSVIAFVKDPDGYTFELIQRGPTPEPFCQVMLRVGDLDRAIKFYEKALGMRLLRKIERPEYKYTIGMMGYAEEYESIVLELTYNYDVTEYTKGNAYAQIAIGTDDVYNSGEVIKIVNQELGGKITREAGPLPGLGTKIVSFLDPDGWKTVLVDNKDILKELE
notes: as for B1
- Km (purified protein [1]): 407 ± 15 µM
- kcat (purified protein [1]): 2.6 ± 0.3 s⁻¹
- kcat/Km (purified protein [1]): 6700 ± 500 M⁻¹ s⁻¹
- Km (purified protein [2]): 302 ± 15 µM
- kcat (purified protein [2]): 8.1 ± 1.1 s⁻¹
- kcat/Km (purified protein [2]): 25800 ± 2100 M⁻¹ s⁻¹

B4: GLXI;2 (Col-0 GLXI;2) (Arabidopsis thaliana; K229N) (protein)
chain: MAEASDLLEWPKKDNRRFLHVVYRVGDLDRTIEFYTEVFGMKLLRKRDIPEEKYSNAFLGFGPETSNFVVELTYNYGVSSYDIGTGFGHFAISTQDVSKLVENVRAKGGNVTREPGPVKGGGSVIAFVKDPDGYTFELIQRGPTPEPFCQVMLRVGDLDRAIKFYEKALGMRLLRKIERPEYKYTIGMMGYAEEYESIVLELTYNYDVTEYTKGNAYAQIAIGTDDVYNSGEVIKIVNQELGGKITREAGPLPGLGTKIVSFLDPDGWKTVLVDNKDFLKELE
notes: as for B1
- Km (purified protein [1]): 415 ± 17 µM
- kcat (purified protein [1]): 2.4 ± 0.3 s⁻¹
- kcat/Km (purified protein [1]): 6500 ± 500 M⁻¹ s⁻¹
- Km (purified protein [2]): 295 ± 23 µM
- kcat (purified protein [2]): 9.1 ± 1.7 s⁻¹
- kcat/Km (purified protein [2]): 26400 ± 2200 M⁻¹ s⁻¹
